Tests used:
[1] = biological target: T1, Ac-P-Hcit-G˜Hphe-SA-Ahxh-Hynic (not fully specified)
T1 chain: PXGXSA

[2] = biological target: T2, Ac-PLG˜Hphe-OLEE-Ahx-Hynic
T2 chain: PLGXXLEE

[3] = biological target: T3, Ac-PLG˜Hphe-RLT-Ahxh-Hynic
T3 chain: PLGXRLT

[4] = biological target: T4, Ac-PLG˜Hphe-KL-Ahxh-Hynic
T4 chain: PLGXKL

[5] = biological target: T5, Ac-POG˜Hphe-LTR-Ahxh-Ac[C14]
T5 chain: PXGXLTR

[6] = biological target: T6, Ac-P-Cit-G˜Abu-LA-Ahxh-Hynic (not fully specified)
T6 chain: PXGXLA

[7] = biological target: T7, Hynic-ff-Ahx-PLG˜Hphe-OLEE-OH
T7 chain: FFXPLGXXLEE

Suc-PLG˜LYT-Ahxh-Hynic = biological target: T8, Suc-PLG˜LYT-Ahxh-Hynic
T8 chain: PLGLYT

[8] = biological target: T9, Ac-P-NLys-R˜LTA-Ahxh-Hynic (not fully specified)
T9 chain: PXRLTA

[9] = biological target: T10, Ac-P-NLeu-G˜LL-Ahxh-Ac[C14] (not fully specified)
T10 chain: PXGLL

Ac-VRW˜LTA-Ahxh-Hynic = biological target: T11, Ac-VRW˜LTA-Ahxh-Hynic (not fully specified)
T11 chain: VRWLTA

[10] = biological target: T12, Ac-DAla-PRG˜Ile-LA-Ahxh-Hynic (not fully specified)
T12 chain: APRGILA

[11] = biological target: T13, Ac-NGlu-PLG˜Hphe-YL-Ambh-Hynic (not fully specified)
T13 chain: XPLGXYL

[12] = biological target: T14, Ac-PL-NLys˜LL-Ahxh-Ac[C14] (not fully specified)
T14 chain: PLXLL

[13] = biological target: T15, Ac-PLG˜Ahp-OL-Ahxh-Ac[C14] (not fully specified)
T15 chain: PLGXXL

Ac-PLG˜LYT-Ahxh-Hynic = biological target: T16, Ac-PLG˜LYT-Ahxh-Hynic (not fully specified)
T16 chain: PLGLYT

Ac-PLG˜LYQ-Ahxh-Ac[C14] = biological target: T17, Ac-PLG˜LYQ-Ahxh-Ac[C14] (not fully specified)
T17 chain: PLGLYQ

[14] = biological target: T18, Hynic-fff-Ahx-PLG˜Hphe-OLEE-OH
T18 chain: FFFXPLGXXLEE

[15] = biological target: T19, Ac-P-Cit-G˜Hphe-LA-Ahxh-Hynic (not fully specified)
T19 chain: PXGXLA

Ac-PLG˜LOL-Ahxh-Hynic = biological target: T20, Ac-PLG˜LOL-Ahxh-Hynic (not fully specified)
T20 chain: PLGLXL

[16] = biological target: T21, Ac-PLG˜L-Pya-L-Ahxh-Ac[C14] (not fully specified)
T21 chain: PLGLXL

Ac-VRW˜LLA-Ahxh-Hynic = biological target: T22, Ac-VRW˜LLA-Ahxh-Hynic
T22 chain: VRWLLA

[17] = biological target: T23, Ac-P-Cit-Hse˜Hphe-SA-Ahxh-Hynic (not fully specified)
T23 chain: PXXXSA

[18] = biological target: T24, Ac-PLG˜Hphe-YLA-Ahxh-Hynic
T24 chain: PLGXYLA

[19] = biological target: T25, Ac-PLG˜Hphe-KL-Ahxh-Ac[C14] (not fully specified)
T25 chain: PLGXKL

[20] = biological target: T26, Ac-PLG˜L-Cha-Ahxh-Ac[C14] (not fully specified)
T26 chain: PLGLX

[21] = biological target: T27, Ac-P-Cha-G˜LL-Ahxh-Ac[C14] (not fully specified)
T27 chain: PXGLL

Ac-POG˜LLA-Ahxh-Hynic = biological target: T28, Ac-POG˜LLA-Ahxh-Hynic
T28 chain: PXGLLA

B1: human MMP-9 (protein)
chain: MRTPRCGVPDLGRFQTFEGDLKWHHHNITYWIQNYSEDLPRAVIDDAFARAFALWSAVTPLTFTRVYSRDADIVIQFGVAEHGDGYPFDGKDGLLAHAFPPGPGIQGDAHFDDDELWSLGKGVVVPTRFGNADGAACHFPFIFEGRSYSACTTDGRSDGLPWCSTTANYDTDDRFGFCPSERLYTQDGNADGKPCQFPFIFQGQSYSACTTDGRSDGYRWCATTANYDRDKLFGFCPTRADSTVMGGNSAGELCVFPFTFLGKEYSTCTSEGRGDGRLWCATTSNFDSDKKWGFCPDQGYSLFLVAAHEFGHALGLDHSSVPEALMYPMYRFTEGPPLHKDDVNGIRHLYGPRPEPEPRPPTTTTPQPTAPPTVCPTGPPTVHPSERPTAGPTGPPSAGPTGPPTAGPSTATTVPLSPVDDACNVNIFDAIAEIGNQLYLFKDGKYWRFSEGRGSRPQGPFLIADKWPALPRKLDSVFEERLSKKLFFFSGRQVWVYTGASVLGPRRLDKLGLGADVAQVTGALRSGRGKMLLFSGRRLWRFDVKAQMVDPRSASEVDRMFPGVPLDTHDVFQYREKAYFCQDRFYWRVSSRSELNQVDQVGYVTYDILQCPED
Q: What does the source list for B1?
A: Kcat/Km [1]: 396000 M⁻¹ s⁻¹; Kcat/Km [2]: 1990 M⁻¹ s⁻¹; Kcat/Km [3]: 103000 M⁻¹ s⁻¹; Kcat/Km [4]: 93400 M⁻¹ s⁻¹; Kcat/Km [5]: 246000 M⁻¹ s⁻¹; Kcat/Km [6]: 20600 M⁻¹ s⁻¹; Kcat/Km [7]: 6680 M⁻¹ s⁻¹; Kcat/Km (Suc-PLG˜LYT-Ahxh-Hynic): 81000 M⁻¹ s⁻¹; Kcat/Km [8]: 0 M⁻¹ s⁻¹; Kcat/Km [9]: 0 M⁻¹ s⁻¹; Kcat/Km (Ac-VRW˜LTA-Ahxh-Hynic): 29900 M⁻¹ s⁻¹; Kcat/Km [10]: 61700 M⁻¹ s⁻¹; Kcat/Km [11]: > 100000 M⁻¹ s⁻¹; Kcat/Km [12]: 195000 M⁻¹ s⁻¹; Kcat/Km [13]: 9340 M⁻¹ s⁻¹; Kcat/Km (Ac-PLG˜LYT-Ahxh-Hynic): 223000 M⁻¹ s⁻¹; Kcat/Km (Ac-PLG˜LYQ-Ahxh-Ac[C14]): 658000 M⁻¹ s⁻¹; Kcat/Km [14]: 1740 M⁻¹ s⁻¹; Kcat/Km [15]: 584000 M⁻¹ s⁻¹; Kcat/Km (Ac-PLG˜LOL-Ahxh-Hynic): 39400 M⁻¹ s⁻¹; Kcat/Km [16]: 162000 M⁻¹ s⁻¹; Kcat/Km (Ac-VRW˜LLA-Ahxh-Hynic): 72200 M⁻¹ s⁻¹; Kcat/Km [17]: 38300 M⁻¹ s⁻¹; Kcat/Km [18]: 201000 M⁻¹ s⁻¹; Kcat/Km [19]: 120000 M⁻¹ s⁻¹; Kcat/Km [20]: 475000 M⁻¹ s⁻¹; Kcat/Km [21]: 180000 M⁻¹ s⁻¹; Kcat/Km (Ac-POG˜LLA-Ahxh-Hynic): 187000 M⁻¹ s⁻¹

B2: MMP-2 (protein)
chain: APSPIIKFPGDVAPKTDKELAVQYLNTFYGCPKESCNLFVLKDTLKKMQKFFGLPQTGDLDQNTIETMRKPRCGNPDVANYNFFPRKPKWDKNQITYRIIGYTPDLDPETVDDAFARAFQVWSDVTPLRFSRIHDGEADIMINFGRWEHGDGYPFDGKDGLLAHAFAPGTGVGGDSHFDDDELWTLGEGQVVRVKYGNADGEYCKFPFLFNGKEYNSCTDTGRSDGFLWCSTTYNFEKDGKYGFCPHEALFTMGGNAEGQPCKFPFRFQGTSYDSCTTEGRTDGYRWCGTTEDYDRDKKYGFCPETAMSTVGGNSEGAPCVFPFTFLGNKYESCTSAGRSDGKMWCATTANYDDDRKWGFCPDQGYSLFLVAAHEFGHAMGLEHSQDPGALMAPIYTYTKNFRLSQDDIKGIQELYGASPDIDLGTGPTPTLGPVTPEICKQDIVFDGIAQIRGEIFFFKDRFIWRTVTPRDKPMGPLLVATFWPELPEKIDAVYEAPQEEKAVFFAGNEYWIYSASTLERGYPKPLTSLGLPPDVQRVDAAFNWSKNKKTYIFAGDKFWRYNEVKKKMDPGFPKLIADAWNAIPDNLDAVVDLQGGGHSYFFKGAYYLKLENQSLKSVKFGSIKSDWLGC
Q: Which Kcat/Km [1] does the source give for B2 here?
A: 293000 M⁻¹ s⁻¹

Q: What about the Kcat/Km [2] of the same protein?
A: 8020 M⁻¹ s⁻¹

Q: And the Kcat/Km [3]?
A: 119000 M⁻¹ s⁻¹

Q: And the Kcat/Km [4]?
A: 78900 M⁻¹ s⁻¹

Q: And the Kcat/Km [5]?
A: > 500000 M⁻¹ s⁻¹

Q: What about the Kcat/Km [6] of the same protein?
A: 17600 M⁻¹ s⁻¹

Q: And the Kcat/Km [7]?
A: 81600 M⁻¹ s⁻¹

Q: What about the Kcat/Km (Suc-PLG˜LYT-Ahxh-Hynic) of the same protein?
A: 141000 M⁻¹ s⁻¹

Q: What about the Kcat/Km [8] of the same protein?
A: 0 M⁻¹ s⁻¹

Q: What about the Kcat/Km [9] of the same protein?
A: 0 M⁻¹ s⁻¹

Q: And the Kcat/Km (Ac-VRW˜LTA-Ahxh-Hynic)?
A: 14400 M⁻¹ s⁻¹

Q: And the Kcat/Km [10]?
A: 130000 M⁻¹ s⁻¹

Q: And the Kcat/Km [12]?
A: 180000 M⁻¹ s⁻¹

Q: What about the Kcat/Km [13] of the same protein?
A: 4970 M⁻¹ s⁻¹

Q: And the Kcat/Km (Ac-PLG˜LYT-Ahxh-Hynic)?
A: 186000 M⁻¹ s⁻¹

Q: And the Kcat/Km (Ac-PLG˜LYQ-Ahxh-Ac[C14])?
A: 439000 M⁻¹ s⁻¹

Q: And the Kcat/Km [14]?
A: 11600 M⁻¹ s⁻¹

Q: What about the Kcat/Km [15] of the same protein?
A: 827000 M⁻¹ s⁻¹

Q: What about the Kcat/Km (Ac-PLG˜LOL-Ahxh-Hynic) of the same protein?
A: 91400 M⁻¹ s⁻¹

Q: And the Kcat/Km [16]?
A: 93000 M⁻¹ s⁻¹

Q: What about the Kcat/Km (Ac-VRW˜LLA-Ahxh-Hynic) of the same protein?
A: 43000 M⁻¹ s⁻¹

Q: And the Kcat/Km [17]?
A: 91400 M⁻¹ s⁻¹

Q: What about the Kcat/Km [18] of the same protein?
A: 221000 M⁻¹ s⁻¹

Q: What about the Kcat/Km [19] of the same protein?
A: 103000 M⁻¹ s⁻¹

Q: What about the Kcat/Km [20] of the same protein?
A: 359000 M⁻¹ s⁻¹

Q: And the Kcat/Km [21]?
A: 24700 M⁻¹ s⁻¹

Q: What about the Kcat/Km (Ac-POG˜LLA-Ahxh-Hynic) of the same protein?
A: > 500000 M⁻¹ s⁻¹
